From the DeepSol protein solubility set

assay: soluble on expression in E. coli; label from the status in PepcDB or PDB records

Sequence | soluble on expression in E. coli
MPSSNSVVPPFDARNLEIKTKSIEQTLIPLVTQITTLVNYKESYMASGKPKSERAMRAALKIGSAVEAAIERFVCVGETIADENADIQPEMYDACTEARLAGASMANLSCACNDDPNSVVDKAVLVRASRQLLSSVTRVLLLADRVLVKQVLRAEDKIAFSLSRLESTRSFNDFVKVFAVFGGEMVELAHRSGDRQHDLKSEKRKAQMSIARTSLERLTMLLLTASKTYLRHPDCDSALQCRDGVFYQMKLSLELIAICVCDGILTTEKSRYIQDEPDMPIDIALQLTANAAIKQLTEMLEMIRMTVRVGAGVRERIVSALDALCQLTQDFTDSAYTPHHQREQILDFLEECRFEMTNLIQPDENEQLAASGLEVTVERLNRRLKDLSKQLQIVAMEQISEVLRANEDQVLLSSMKACAVSGDIDGVEKYMHKFREHADHMQEVCRLLHHISITDALHVHTGHVERNMRALAPLTILAGRTLCVHPSSRIARENLEVFCDTWGQAVNDLSRVAKESDVAANGRVAAEKQAYMSLPRPGVSKSSCRRSVPKHDAASSSSSNELLPNGGRHPKQVGIAPTRVVSQTGDEASSDEEQVDKQEIEAFQYRISLIIDDLQSDVEGGTHGR | not soluble
MSLQISPETQLFIREHQTDDVRALALQARKYPNVDMPTAITQIAGRQVAAEKIPSWRDTDDIWYPKHLSLEQCSSEVTARYKATLLKGNSLTDLTGGFGIDCAFLAARFKSATYVERQQELCEIAAHNFPILNLNHINVKNEDGVSYLQAMSPVDCIFLDPARRNEHGGKTVAISDCEPDVAELEELLLNKAEQVMVKLSPMLDLSLALKELQHVQEVHIISANNECKELLLILGQASAEEISIHCVNLPTRGAQEEQHFVFTREQEQCSECNYTDTLENYLYEPNASLLKAGAFRSIASAFPVKKLHPNSHLYTSDVLVESFPGRAFHIISQCSLNKKELKESLGDLKKANITVRNFPATVAELRKRIKLSEGGDTYLFASTLNNGQKVLIRCEKAEGHHHHHH | soluble
FNSSINNIHEMEIQLKDALEKNQQWLVYDQQREVYVKGLLAKIFELEKKTETAAHSLP | soluble
MGSDKIHHHHHHMPMIHYIFNREIVPPAIEPLLKQLFSGQNFTQSDRLLGYSKGRGITWFLNTQAELGINIVLRHYYRGGLFGKVVKDRYLFQRIDQTRAVQEFNLLTQMQRWHLPVPRPIAVEINKQSIFYRAKIMLEKIEHTQDLSKLLQTQPLVAEQYQQLGQLIRQLHDHQIHHSDLNIHNILLDDNGKFWLIDFDKCCIKAGEEWKQANLNRLLRSFHKEQTRLGIQFHQQNWQSLLTGYQQHNQGDNR | not soluble
MPFVVIITGIPGVGKSTITKLALQRTRAKFKLINFGDLMFEEALKLKLVKHRDEMRKLPLEVQRELQMNAAKKIAEMAKNYPILLDTHATIKTPHGYLLGLPYEVIKILNPNFIVIIEATPSEILGRRLRDLKRDRDVETEEQIQRHQDLNRAAAITYAMHSNALIKIIENHEDKGLEEAVNELVKILDLAVKEYA | soluble
MDLFSQFFQENQKKFLSFAYSYTRNKAAAEDILMEAMVSLWENREKWEKDSNLHALLLTIIKNKSLNYLEHEQVRMKAEEAINTHKQRELDLRISTLEACEPATIFDTEIQRIVYKTLEQLPEQSRHIFILSRYHNTPNKKIAEQLGISIKSVEFHITKTLKLLRLELKDYLISLLF | not soluble
MVISLKNRNFLKLLDYTPAEIQHLIDLAIELKAAKKAGCEKQTLIGKNIALIFEKTSTRTRCAFEVAAFDQGAQVTYLGPSGSQIGHKESMKDTARVLGRMYDGIEYRGFGQHIVEELGEYAGVPVWNGLTDEFHPTQILADLMTMLEHAPGKTLPELSFAYLGDARNNMGNSLMVGAAKMGMDIRLIAPKSFWPDAALVAQCREIASVTGARITLTESVEDGVHGVDFLYTDVWVSMGEPKEAWAERVSLMTPYQVNQQVVNATGNPDVKFMHCLPAFHNEHTKVGREIEMAYGLKGLEVTEEVFESAGSIVFDEAENRMHTIKAVMVATLGD | not soluble
MEEHYYVSIDIGSSSVKTIVGEKFHNGINVIGTGQTYTSGIKNGLIDDFDIARQAIKDTIKKASIASGVDIKEVFLKLPIIGTEVYDESNEIDFYEDTEINGSHIEKVLEGIREKNDVQETEVINVFPIRFIVDKENEVSDPKELIARHSLKVEAGVIAIQKSILINMIKCVEACGVDVLDVYSDAYNYGSILTATEKELGACVIDIGEDVTQVAFYERGELVDADSIEMAGRDITDDIAQGLNTSYETAEKVKHQYGHAFYDSASDQDIFTVEQVDSDETVQYTQKDLSDFIEARVEEIFFEVFDVLQDLGLTKVNGGFIVTGGSANLLGVKELLSDMVSEKVRIHTPSQMGIRKPEFSSAISTISSSIAFDELLDYVTINYHDNEETEEDVIDVKDKDNESKLGGFDWFKRKTNKKDTHENEVESTDEEIYQSEDNHQEHKQNHEHVQDKDKDKEESKFKKLMKSLFE | not soluble
MSLKYSSTTADYLQWSEAMNLIRKLARDSNYKMSLLIALGCFTGLRISDILALRWNQILDAEEFTIIEIKTGKQRTIRINMQLQQHIRDCYEHINPVGINAPVLISQKGTVYTVQRINVMLKEIKKKYKLQIGNFSCHSLRKTFGRQVYNMNSDNSELALVKLMELFNHSSVSITKRYLGLRQEELLNTYDCLSF | not soluble
MSEFSQTALFPSLPRTARGTAVVLGNTPAGDKIQYCNGTSVYTVPVGSLTDTEIYTEHSHQTTVAKTSPSGYYCASGDVHGNVRIWDTTQTTHILKTTIPVFSGPVKDISWDSESKRIAAVGEGRERFGHVFLFDTGTSNGNLTGQARAMNSVDFKPSRPFRIISGSDDNTVAIFEGPPFKFKSTFGEHTKFVHSVRYNPDGSLFASTGGDGTIVLYNGVDGTKTGVFEDDSLKNVAHSGSVFGLTWSPDGTKIASASADKTIKIWNVATLKVEKTIPVGTRIEDQQLGIIWTKQALVSISANGFINFVNPELGSIDQVRYGHNKAITALSSSADGKTLFSADAEGHINSWDISTGISNRVFPDVHATMITGIKTTSKGDLFTVSWDDHLKVVPAGGSGVDSSKAVANKLSSQPLGLAVSADGDIAVAACYKHIAIYSHGKLTEVPISYNSSCVALSNDKQFVAVGGQDSKVHVYKLSGASVSEVKTIVHPAEITSVAFSNNGAFLVATDQSRKVIPYSVANNFELAHTNSWTFHTAKVACVSWSPDNVRLATGSLDNSVIVWNMNKPSDHPIIIKGAHAMSSVNSVIWLNETTIVSAGQDSNIKFWNVPF | soluble
MGSDKIHHHHHHMKRMTKIGIYGMAVWMLSACGNGTPDYDATGTFEATEVIVSAEAAGKLLQLEVEEGTRLKAGEEVGLVDTVQLYLKKLQLEASMKSVESQRPDLAKQIAATKQQITTAQREKKRVENLLAAGAANQKQLDDWDAQVTLLQQQLIAQESSLMKSTNSLTEQGNSVSIQVAQVEDQLNKCHIQSPIEGTVLAKYAEGGELASVGKPLFKVGEVDRMYLRAYVTSEQLSQVKLGDKVTVYSDYGNSEQKAYPGVVTWISDRSEFTPKTILTKNERANLVYAVKIAVKNDGSLKIGMYGGVVWKKENP | not soluble
MGSDKIHHHHHHMPITFVDRESELKFLESLWKRRNSFVPVYGRRRIGKTRLVKEFIKGKPSVYYLSRNSSYNDNLYGFSQVVLEAYPSPYLTPKSFSTFTDIFRYLSEKGKVVVVIDEFPYLINSDKRILSEFQYIIDEIVRNSEIHLILVGSSIGMMEEHVLSQKSPLYGRRDGQIRLHSLDFFSSWKLLGVSLEEAIKIYGVTGGIPAYLILFKKFEDLKNVAFSKQGFLYAEADFLLSSELREPRVYKLILKAIAEGKRRFNEISTFTGIPRPNLFKYIEVLERLGLLRREAPITAPPKTKNTRYKIVDNYIAFYFRFIEKYRHEIELESINFWEEFLEDYNNYLGEVFEDIACQFLVRLNKKRMFPFRFSKIGRWWHKNEEIDLVALDKREKRASFIEVKWKTLKEGEARSILRDLERKSKLVGLDYWNKNYGLIAKHIEGKENLREEGFLAWDLRDFELVKKE | not soluble
MTAASLDPTAFSLDAASLAARLDAVFDQALRERRLVGAVAIVARHGEILYRRAQGLADREAGRPMREDTLFRLASVTKPIVALAVLRLVARGELALDAPVTRWLPEFRPRLADGSEPLVTIHHLLTHTSGLGYWLLEGAGSVYDRLGISDGIDLRDFDLDENLRRLASAPLSFAPGSGWQYSLALDVLGAVVERATGQPLAAAVDALVAQPLGMRDCGFVSAEPERFAVPYHDGQPEPVRMRDGIEVPLPEGHGAAVRFAPSRVFEPGAYPSGGAGMYGSADDVLRALEAIRANPGFLPETLADAARRDQAGVGAETRGPGWGFGYLSAVLDDPAAAGTPQHAGTLQWGGVYGHSWFVDRALGLSVLLLTNTAYEGMSGPLTIALRDAVYAR | soluble
MAHHHHHHMRPTCVCAVRAVRMYVPMRVAATGGATPSAASPAGDNASTSSEVRAARRITEAVLSARAKHKLQHRQPSPPTPVPPSVRAKAKAPRSPASDIEEGVVKDTVTVEVQTAARLALSYGKSAFMTHLVHQHDDAHQRPGTVSASEWDQPMVSDAGEPEASVMTASSETCAVLPLRARTPTIPRAAAGTPGLQMAIDKWWRDLTDEARVRWITSTPQGRRALQHATKLAKFRNVSCGQGRSSNSGAHVVPSMESMLTKYKNTLAQPRLPRAAALAPSPKESILRMKLQDEKGASVSPSSKPTTVSSALAGMMHAASENNANRRLLRDRADAVRREEQRKLWHQALVQFLGGASAFTFVHDVKDLQQPRTEAEQAVKREPGAQSGGGAGRATTVAPNTPAATATGNATPEEMADDGAPVAFSDGLLDMCEGLGIRSPRRAYVLSRVLPEVDAANASEGPPLSLAEVQDLAKKCSTEYDELRDDAMRTARETGSASAEDAVRAFEREQLALAVARVQKKLVMFQENLPLLKRCVNVLSK | not soluble
MKQRILIVGAGFAGMWSALSAVRQLDRQGRDDVEVAVLAPQPELRIRPRFYEPDVQRMAAPLGELFAAVGVRFVQGSAQRIDVAGKRVEYRDAEGTLAQLDYDRLVLAAGSGVWRPASVAGIDAAFDVDQLEDALRLEAHLHALRDLPDSPARNTVVVAGGGFTGIETATEMPARLRAILGEKAALRVIVVDRGAAIGASMGADLSGLIAEASAELGVEWCLGRSVAAVDAEGVTLDDGQRIEAKTVVWTVGVRASTLTGQIPGERDAQGRLHVDRNLKVLGLDDVYATGDVARAATDDLGNHALMTCQHAIALGRSAGNNVAADLLGVEPIPYSQVKYVTCLDLGGWGAVFTEGWDRQVRFVREEGKKIKTEINGVWIYPPAADRAVALAAADPLIPVVALEHHHHHH | soluble
MPRTHGYAPIGKRCHGKCNWHARGRINVIGALIGKCLLTVGLFKNNIDADTFLGWTIHDLLPKLPPASIVVMDNATFRKRQDIQNVITRGGHTLEYLPAYSPDLNPIEHKWAQTKAVRKQQNQTVEQLFKIESFYVT | not soluble
MNHDIPALALGPQGEVMAHAIDACVHCGFCLPACPTYALLGDEMDSPRGRIVLMKEVLEGSLELEDAAPHLDRCLGCQGCVTACPSGVPYGELITSFRGWSEPQRERTPLDRAKRYAILKALPAPKLFSVAARVGQFAKPLAPALPAALKAPLDLLPEHVPAMQPQPRVTPARGQRRGRVAFLAGCAQQALTPNFNAATLRVLSRNGIEVVIPEGQGCCGAAALHTGARDEALRLVRANLAAFNPDEYDAILSNAAGCGAGLKEYPVVLHGLPDEAQAQAFAAKVQDISEYLAGLLRDGELAPLMPTREPVKVAYHDACHLAHAQGVRSAPRELLRAIPGVTLTEIPEGDLCCGSAGTYNLEQPELANQLGQRKAKNILGTQPDLIASGNIGCHTQIQSHVRRQGSPVPVMHTVEVLDLAYRGELLEHHHHHH | not soluble
